Experiments:
[1] = biological target: porcine trypsin (porcine) (UniProt P00761); assay: enzyme inhibition kinetics (double-reciprocal, Lineweaver-Burk plot); 0, 66.66 and 133.33 ηmol L^−1 rTcTI against 10 µg porcine trypsin, 15 min at 37 °C, then substrate BApNA at 0.04–0.42 (printed ηmol L^−1) in 240 µL; absorbance at 410 nm; quadruplicate; competitive inhibition
[2] = biological target: porcine trypsin (porcine) (UniProt P00761)

UniProt P00761, sequence (P00761 9-231): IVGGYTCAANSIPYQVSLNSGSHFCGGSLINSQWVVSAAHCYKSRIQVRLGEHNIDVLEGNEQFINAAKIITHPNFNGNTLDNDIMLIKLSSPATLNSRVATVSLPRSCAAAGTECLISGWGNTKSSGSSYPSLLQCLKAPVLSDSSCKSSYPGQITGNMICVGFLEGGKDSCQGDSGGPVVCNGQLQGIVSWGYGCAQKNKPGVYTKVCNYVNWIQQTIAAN

Question: Which results are given for “recombinant Theobroma cacao trypsin inhibitor (rTcTI) (natural protein)”?
Answer: Ki [1]: 0.408 µM; residual trypsin activity (hydrolysis of BApNA, absorbance at 410 nm) with rTcTI rising from 0.5 to 1.2 μmol L^−1; 70% at the lower concentration [2]: 12%

From article PMC8758671
